From patent US20100239587A1 (published 2010)
Values belong to the binder of their own block, whether it stands above or below them. Bridge positions count the residues as written; N and C are the ends. Ends that are not written are not given here.

Assays:
[1] = target: T1, ErbB1 extracellular domain (recombinant, soluble) (UniProt P00533 25-645, limits assumed); test: SPR; 10 µM peptide pre-injected over immobilized ErbB1; competitor: ErbB3 ectodomain (300 nM) with HRGβ1 (5 µM)
T1 construct: extracellular domain; also called erbB1 ectodomain; EGFr

[2] = target: T2, ErbB3 extracellular domain (recombinant, soluble) (UniProt P21860 20-643, limits assumed); test: SPR; 10 µM peptide pre-injected over immobilized ErbB3; competitor: ErbB3 ectodomain (300 nM) with HRGβ1 (5 µM)
T2 construct: extracellular domain; Used both immobilized and as the injected analyte (300 nM, alone or with 5 µM HRGβ1); also called erbB3 ectodomain
T2 sequence (P21860 20-643 limits assumed): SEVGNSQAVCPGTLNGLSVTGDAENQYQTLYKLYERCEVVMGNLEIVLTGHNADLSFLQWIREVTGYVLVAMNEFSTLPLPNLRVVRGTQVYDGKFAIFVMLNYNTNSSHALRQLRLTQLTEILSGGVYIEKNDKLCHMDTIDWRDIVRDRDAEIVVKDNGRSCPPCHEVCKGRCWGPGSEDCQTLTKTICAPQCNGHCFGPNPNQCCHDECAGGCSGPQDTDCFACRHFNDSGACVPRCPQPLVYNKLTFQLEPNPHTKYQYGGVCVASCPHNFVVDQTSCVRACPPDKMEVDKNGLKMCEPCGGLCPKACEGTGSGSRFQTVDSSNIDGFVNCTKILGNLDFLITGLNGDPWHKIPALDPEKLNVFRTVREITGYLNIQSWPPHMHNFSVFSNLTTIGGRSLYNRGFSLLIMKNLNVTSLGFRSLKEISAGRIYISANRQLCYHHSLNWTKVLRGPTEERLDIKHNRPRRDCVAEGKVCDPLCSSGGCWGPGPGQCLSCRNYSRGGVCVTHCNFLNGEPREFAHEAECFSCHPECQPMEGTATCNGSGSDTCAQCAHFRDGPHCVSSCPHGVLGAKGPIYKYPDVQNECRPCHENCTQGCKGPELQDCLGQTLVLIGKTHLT

[3] = target: TNF receptor (immobilized control); test: SPR, receptor immobilized, peptide injected
[4] = target: T3, ErbB2 extracellular domain (recombinant) (UniProt P04626 23-652, limits assumed); test: SPR; 10 µM peptide pre-injected over immobilized ErbB2; competitor: ErbB3 ectodomain (300 nM) with HRGβ1 (5 µM)
T3 construct: extracellular domain; also called erbB2 ectodomain; full-size erbB2 ectodomain

B1: CD4-G (peptide)
peptide: FCYIGEVEDQCY
modifications: disulfide 2-11 (inferred)
notes: Negative control peptide; also called CD4 receptor-derived cyclic peptide; control peptide
Percent Inhibition [1]: 2.4% | Percent Inhibition [2]: 3.1% | Kd [3]: > 1000 µM | Percent Inhibition [4]: -1.2%

Binder: YCPIWKFPDEECY (disulfide 2-12 (inferred), Derived from the S22 repeat of erbB2) [B2-S22-APE]
Kd [3]: > 1000 µM

B2: B2-S22-AFA (peptide)
peptide: YCFPDEEGACY
modifications: disulfide 2-10 (inferred)
notes: Cyclic peptide that mimics part of the S22 loop of erbB2
Kd [3]: > 1000 µM

Binder: YCFIFKYADPDCY (disulfide 2-12 (inferred), Derived from the S22 repeat of erbB4) [B4-S22-AFD]
Kd [3]: > 1000 µM

The remaining lines, values ahead:

Kd [3]: > 1000 µM
Binder: YCPIYKYPDVQCY (disulfide 2-12 (inferred), Derived from the S22 repeat of erbB3) [B3-S22-APQ]

Kd [3]: > 1000 µM
Binder: YCLVWKYADAGCY (disulfide 2-12 (inferred), Derived from the S22 repeat of erbB1) [B1-S22-ALG]
